Test results taken from patent US20100159527, “Polypeptides Having Nucleic Acid Binding Activity and Compositions and Methods For Nucleic Acid Amplification” (LIFE TECHNOLOGIES CORPORATION, published 2010).

T1: Pae3192 (Pyrobaculum aerophilum)
T1 chain: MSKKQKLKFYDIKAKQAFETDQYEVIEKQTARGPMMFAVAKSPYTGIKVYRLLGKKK


Assays:
Pae3192 [1] = biological target: T1, Pae3192; assay: EMSA; 150 nM duplex, 0-12 uM protein; 170 mM NaCl, 1 mM CaCl2, 25 mM Tris pH 8.0, 40 C, 1% agarose; conditions: tags: expressed from pET16b with N-terminal 10xHis and Factor Xa site
Method: (§1) Gel-shift experiments were carried out using 150 nM 42-mer duplex and separate experiments were performed with 0, 1.5, 3, 6 or 12 uM Pae3192 protein. A DNA:DNA duplex was created by annealing DNA oligonucleotides 1a and 2a of Table 1 below. An RNA:RNA duplex was created by annealing RNA oligonucleotides 1b and 2b of Table 1 below. A DNA:RNA duplex was created by annealing DNA oligonucleotide 1a to RNA oligonucleotide 2b of Table 1 below. DNA binding reactions contained 170 mM NaCl, 1 mM CaCl₂ and 25 mM Tris, pH 8.0. Pae3192 was incubated separately with each of the three duplexes for 15 minutes at 40° C. before being run on a 1% agarose gel.

Pae3192 [2] = biological target: T1, Pae3192; assay: EMSA; not shifted up to 12 uM protein; 170 mM NaCl, 1 mM CaCl2, 25 mM Tris pH 8.0, 40 C, RNasin Plus; conditions: tags: expressed from pET16b with N-terminal 10xHis and Factor Xa site
Method: as §1

Row | Binder | binding result (Pae3192 [1]) | binding result (Pae3192 [2])
1 | 42-mer DNA:DNA duplex (oligos 1a+2a) (dsDNA) DNA 1: CAGACTGGAATTCAAGCGCGAGCTCGAATAAGAGCTACTGTT DNA 2: AACAGTAGCTCTTATTCGAGCTCGCGCTTGAATTCCAGTCTG | binds | –
2 | 42-mer DNA:RNA duplex (oligos 1a+2b) (DNA:RNA) DNA: CAGACTGGAATTCAAGCGCGAGCTCGAATAAGAGCTACTGTT RNA: AACAGUAGCUCUUAUUCGAGCUCGCGCUUGAAUUCCAGUCUG | binds | –
3 | 42-mer RNA:RNA duplex (oligos 1b+2b) (dsRNA) RNA 1: CAGACUGGAAUUCAAGCGCGAGCUCGAAUAAGAGCUACUGUU RNA 2: AACAGUAGCUCUUAUUCGAGCUCGCGCUUGAAUUCCAGUCUG | – | no binding
